In US20260126425A1:

Legend:
[1] = target: SARS-CoV-2 Spike protein (Spike trimer) (SARS-CoV-2) (UniProt P0DTC2)
[2] = target: SARS-CoV-2 Spike protein (Spike trimer) (SARS-CoV-2) (UniProt P0DTC2); remark: listed apart in the source
[3] = target: SARS-CoV-2 Spike protein (Spike trimer) (SARS-CoV-2) (UniProt P0DTC2); remark: listed apart in the source

## Ty1-modified ClyA nanopore (ClyA-f-Ty1)
[1]
  Kd: 0.761 nM
[2]
  EC50 (read off the curve): 0.6 nM
[3]
  constant fit of Log10(tin (ms)) against Spike protein concentration (pM): 1.48 Log10(ms)
